“And” between values parts separate entries of the source, which are not always exact repeats. Identical values can stand only once.

This series deals with the molecule itself. As to the kind of experiment: SEC; Superdex 200; concentrated protein applied directly to the column, no pre-incubation period; masses estimated against molecular weight standards.

B1: extracellular domain of human SidT1 (SidT1 ECD), glycosylated, secreted from insect cells (domain or fragment)
chain: GAASPGHPAKSPRQPPAPRRDPFDAARGADFDHVYSGVVNLSTENIYSFNYTSQPDQVTAVRVYVNSSSENLNYPVLVVVRQQKEVLSWQVPLLFQGLYQRSYNYQEVSRTLCPSEATNETGPLQQLIFVDVASMAPLGAQYKLLVTKLKHFQLRTNVAFHFTASPSQPQYFLYKFPKDVDSVIIKVVSEMAYPCSVVSVQNIMCPVYDLDHNVEFNGVYQSMTKKAAITLQKKDFPGEQFFVVFVIKPEDYACGGSFFIQEKENQTWNLQRKKNLEVTIVPSIKES
modifications: N-linked glycosylation (sites not given)
notes: N-terminal glycine appendage left from the TEV protease site; human SidT1 (Sid-1 homolog), extracellular domain, residues 19-304 of Entrez Protein AAI17223, after signal peptidase and TEV cleavage; also called SidT1 extracellular domain; recombinant SidT1 ECD; source: Tni (usually) or Sf9 insect cells, baculovirus, secreted into the medium; not shown: His6, N-terminal, cleaved
As for B1, the “stoichiometry N” value is 2 and 4.
